Changes are numbered by the printed parent chain. Names may count otherwise. “And” between values parts separate entries of the source, which are not always exact repeats. Equal entries are not always repeated.

In assay [1] the target is T1, Human CD16a V158 (FcγRIIIa V158) (human, UniProt P08637 17-208, biotinylated (site not stated)).
T1 construct: V158 is the allele name in mature numbering; also called hCD16aV; hCD16a V158
The assay can be described thus: SPR; biotinylated CD16a V158 captured on SA chip, TriNKET as analyte; 1:1 kinetic fit; control sample, n=3.

In assay [2] the target is T1, Human CD16a V158 (FcγRIIIa V158). The assay can be described thus: SPR; biotinylated CD16a V158 captured on SA chip, TriNKET as analyte; 1:1 kinetic fit; after 4 wks 40 C in phosphate/citrate/NaCl pH 7.8.
Assay [3] addresses T2, mFc-hNKG2D (human, UniProt P26718 73-216).
T2 construct: extracellular domain; Made in house (Dragonfly Tx); the order of tag and ECD follows the name mFc-hNKG2D; also called mFc-tagged human NKG2D; not shown: mouse Fc tag
T2 sequence (looked up): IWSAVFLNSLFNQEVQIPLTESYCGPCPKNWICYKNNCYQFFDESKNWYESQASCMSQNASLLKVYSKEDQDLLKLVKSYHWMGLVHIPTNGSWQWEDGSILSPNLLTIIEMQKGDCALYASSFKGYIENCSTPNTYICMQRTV
The assay can be described thus: SPR Biacore 8K 37 C; mFc-hNKG2D captured on anti-mFc chip, TriNKET as analyte; 1:1 kinetic fit; control sample, n=3.

Assay [4] concerns the target T3, Human CLEC12A-His (human, UniProt Q5QGZ9 65-265).
T3 construct: Recombinant soluble protein made in house (Dragonfly Tx); The hCLEC12A spot of the HuProt array is written under this molecule as well; also called hCLEC12A-His; hCLEC12A; not shown: His tag
T3 sequence: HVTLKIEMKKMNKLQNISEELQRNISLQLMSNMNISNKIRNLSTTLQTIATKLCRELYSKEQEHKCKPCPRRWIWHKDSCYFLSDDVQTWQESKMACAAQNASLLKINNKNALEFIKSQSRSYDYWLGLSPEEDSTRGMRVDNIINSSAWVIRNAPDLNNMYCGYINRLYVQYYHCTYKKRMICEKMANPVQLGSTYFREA
The assay is described as follows: SPR Biacore 8K 37 C; TriNKET captured on anti-hFc chip, hCLEC12A-His as analyte; 1:1 fit; un-oxidized control, n=2.

For another assay, the target named is T4, Human CD32b (human, UniProt P31994 46-217, limits assumed, biotinylated).
T4 construct: Bought recombinant receptor; also called hFcγRIIb
T4 sequence (looked up): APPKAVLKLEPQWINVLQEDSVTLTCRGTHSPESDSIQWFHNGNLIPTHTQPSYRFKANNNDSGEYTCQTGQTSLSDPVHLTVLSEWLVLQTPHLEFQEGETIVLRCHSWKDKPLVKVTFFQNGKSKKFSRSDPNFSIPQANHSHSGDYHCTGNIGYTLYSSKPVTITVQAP
The assay is described as follows: SPR, steady state fit; average for AB0192.

The target of another assay is T5, Human CD16a V158 (human, UniProt P08637 17-208, biotinylated).
T5 construct: Bought recombinant receptor; also called hCD16a (V158); hFcγRIIIa V158
The assay can be described thus: SPR; control sample (HST pH 6.0 study).

For assay [5], the target named is T6, Human CLEC12A-His (human, UniProt Q5QGZ9 65-265).
T6 construct: Recombinant soluble protein made in house; also called hCLEC12A-His; hCLEC12A; not shown: His tag
T6 sequence: T3 sequence
The assay is described as follows: SPR; control sample (HST pH 6.0 study).

Assay [6] addresses T7, mFc-hNKG2D (human, UniProt P26718 73-216).
T7 construct: extracellular domain; Recombinant mFc-tagged NKG2D dimer, made in house; also called human NKG2D; not shown: mouse Fc tag
T7 sequence (looked up): T2 sequence (looked up)
The assay is described as follows: SPR; control sample (HST pH 6.0 study).

The target of assay [7] is T8, Human CLEC12A-His (recombinant, K244 WT) (human, UniProt Q5QGZ9 65-265).
T8 construct: Made in house (Dragonfly Tx); also called hCLEC12A; hCLEC12A-His; not shown: His tag
T8 sequence: T3 sequence
The assay can be described thus: SPR, two-state fit (ka1); after pH 8, 40C, 2 wks.

The target of assay [8] is T8, Human CLEC12A-His (recombinant, K244 WT). The assay can be described thus: SPR, two-state fit (kd1); control sample.
Assay [9] deals with T9, mFc-hNKG2D (recombinant mFc-tagged human NKG2D dimer) (human, UniProt P26718 73-216).
T9 construct: extracellular domain; Made in house; not shown: mouse Fc tag
T9 sequence (looked up): T2 sequence (looked up)
The assay can be described thus: SPR 37C, mFc-hNKG2D captured, steady state fit.

Assay [10] deals with T10, recombinant human CLEC12A-His (human, UniProt Q5QGZ9 65-265).
T10 construct: also called hCLEC12A-His; hCLEC12A
T10 sequence: T3 sequence
The assay can be described thus: SPR 37C, average.

The next assay deals with T11, human CLEC12A-K244Q-His (human, UniProt Q5QGZ9 65-265).
T11 construct: Polymorphic variant; also called hCLEC12A-K244Q; CLEC12A (Q244)
T11 chain: T3 sequence with K180Q
The assay is described as follows: SPR.

Assay [11] has as its target T10, recombinant human CLEC12A-His. The assay can be described thus: SPR 37C, TriNKET captured on anti-hFc.

T5 sequence (P08637 17-208 F176V limits assumed): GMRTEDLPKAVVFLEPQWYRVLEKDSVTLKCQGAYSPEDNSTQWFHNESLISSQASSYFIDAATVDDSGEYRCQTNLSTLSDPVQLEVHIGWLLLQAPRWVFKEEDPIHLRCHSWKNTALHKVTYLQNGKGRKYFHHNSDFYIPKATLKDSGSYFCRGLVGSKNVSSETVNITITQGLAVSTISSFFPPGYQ
T1 sequence (P08637 17-208 F176V limits assumed): as above

B1: F3'-1602 TriNKET (bispecific antibody, human IgG1, kappa)
chain: QLQLQESGPGLVKPSETLSLTCTVSGFSLTNYGLHWIRQPPGKCLEWIGVIWSGGKTDYNPSLKSRVTISKDTSKNQFSLKLSSVQAADTAVYYCAKYDYDDSLDYWGQGTLVTVSSGGGGSGGGGSGGGGSGGGGSDIQMTQSPSSLSASVGDRVTITCHASQNINFWLSWYQQKPGKAPKLLIYEASNLHTGVPSRFSGSGSGTRFTLTISSLQPEDIATYYCQQSHSYPLTFGCGTKLEIKGSDKTHTCPPCPAPELLGGPSVFLFPPKPKDTLMISRTPEVTCVVVDVSHEDPEVKFNWYVDGVEVHNAKTKPREEQYNSTYRVVSVLTVLHQDWLNGKEYKCKVSNKALPAPIEKTISKAKGQPREPRVYTLPPCRDELTKNQVSLTCLVKGFYPSDIAVEWESNGQPENNYKTTPPVLVSDGSFTLYSKLTVDKSRWQQGNVFSCSVMHEALHNHYTQKSLSLSPG
heavy: EVQLVESGGGLVKPGGSLRLSCAASGFTFSSYSMNWVRQAPGKGLEWVSSISSSSSYIYYADSVKGRFTISRDNAKNSLYLQMNSLRAEDTAVYYCARGAPIGAAAGWFDPWGQGTLVTVSSASTKGPSVFPLAPSSKSTSGGTAALGCLVKDYFPEPVTVSWNSGALTSGVHTFPAVLQSSGLYSLSSVVTVPSSSLGTQTYICNVNHKPSNTKVDKKVEPKSCDKTHTCPPCPAPELLGGPSVFLFPPKPKDTLMISRTPEVTCVVVDVSHEDPEVKFNWYVDGVEVHNAKTKPREEQYNSTYRVVSVLTVLHQDWLNGKEYKCKVSNKALPAPIEKTISKAKGQPREPQVCTLPPSRDELTENQVSLTCLVKGFYPSDIAVEWESNGQPENNYKTTPPVLDSDGSFFLYSWLTVDKSRWQQGNVFSCSVMHEALHNHYTQKSLSLSPG
light: DIQMTQSPSSVSASVGDRVTITCRASQGISSWLAWYQQKPGKAPKLLIYAASSLQSGVPSRFSGSGSGTDFTLTISSLQPEDFATYYCQQGVSFPRTFGGGTKVEIKRTVAAPSVFIFPPSDEQLKSGTASVVCLLNNFYPREAKVQWKVDNALQSGNSQESVTEQDSKDSTYSLSSTLTLSKADYEKHKVYACEVTHQGLSSPVTKSFNRGEC
notes: Trispecific F3' format: CLEC12A scFv-Fc paired with NKG2D Fab-Fc; Stressed and control samples of the stability studies are the same molecule; also called AB0237
As for B1, the Kd in assay [1] came to 212 nM; in assay [2] it was 216 nM; with mFc-hNKG2D [3], 661 nM; with Human CLEC12A-His [4], 1.1 nM. The koff in assay [1] worked out at 0.024 s⁻¹; in assay [2], 0.0209 s⁻¹; with mFc-hNKG2D [3] it was 0.139 s⁻¹; with Human CLEC12A-His [4] it was 0.000858 s⁻¹. Moreover, the kon in [1] is 113000 M⁻¹ s⁻¹; in assay [2], 96700 M⁻¹ s⁻¹; with mFc-hNKG2D [3] it was 211000 M⁻¹ s⁻¹; with Human CLEC12A-His [4], 799000 M⁻¹ s⁻¹.

B2: AB0192 TriNKET (other)
chain: EVQLVESGGGVVQPGGSLRLSCAASGFTFNAFGMHWVRQAPGKCLEWVAFISSGSTSIYYANTVKGRFTISRDNSKNTLYLQMNSLRAEDTAVYYCARDGYPTGGAMDYWGQGTSVTVSSGGGGSGGGGSGGGGSGGGGSDIQMTQSPSSLSASVGDRVTITCKASQDIYNYLSWFQQKPGKAPKPLIYRANILVSGVPSRFSGSGSGQDYTFTISSLQPEDIATYYCLQFDAFPFTFGCGTKLEIKGSDKTHTCPPCPAPELLGGPSVFLFPPKPKDTLMISRTPEVTCVVVDVSHEDPEVKFNWYVDGVEVHNAKTKPREEQYNSTYRVVSVLTVLHQDWLNGKEYKCKVSNKALPAPIEKTISKAKGQPREPRVYTLPPCRDELTKNQVSLTCLVKGFYPSDIAVEWESNGQPENNYKTTPPVLVSDGSFTLYSKLTVDKSRWQQGNVFSCSVMHEALHNHYTQKSLSLSPG
heavy: B1 heavy
light: B1 light
notes: the condition stands under assay; also called AB0192 Lot AB0192-005
Take B2: the Kd in the assay with Human CD32b came to 6100 nM; with Human CD16a V158 it was 171 nM; in the assay with Human CLEC12A-His [5], 1.81 nM; with mFc-hNKG2D [6], 588 nM. Also, the koff with Human CD16a V158 was found to be 0.0199 s⁻¹; with Human CLEC12A-His [5], 0.0014 s⁻¹; with mFc-hNKG2D [6], 0.122 s⁻¹. For the same molecule, the kon in the assay with Human CD16a V158 worked out at 117000 M⁻¹ s⁻¹; with Human CLEC12A-His [5], 776000 M⁻¹ s⁻¹; with mFc-hNKG2D [6], 208000 M⁻¹ s⁻¹.

B3: AB0089 TriNKET (bispecific antibody, human IgG1, kappa)
chain: B1 chain with S53V, K56A, K71V, Y98G, D101G, S103T, R207D, I220F
heavy: B1 heavy
light: B1 light
notes: F3' format heterodimer of three chains; human IgG1 Fc with EW-RVT and Y349C/S354C mutations; also called AB0089 Lot AB0089-002; CLEC12A TriNKET AB0089
On to B3, for which the kon in assay [7] was found to be 9.93e+06 M⁻¹ s⁻¹. The koff in assay [8] stood at 0.042 s⁻¹. Moreover, the dissociation constant Kd in [9] was 873 nM and 894 nM and 885 nM.

B4: F3'-1602 TriNKET (other)
chain: B1 chain
heavy: B1 heavy
light: B1 light
notes: CLEC12A scFv-Fc, NKG2D A49MI Fab-Fc, human IgG1 Fc; also called AB0237
With B4, in assay [10], the Kd came to 0.59 nM, the koff was 0.000494 s⁻¹ and the kon was 844000 M⁻¹ s⁻¹. In the assay with human CLEC12A-K244Q-His, this molecule had a Kd of 0.77 nM, a koff of 0.000436 s⁻¹ and a kon of 565000 M⁻¹ s⁻¹. Moreover, in assay [11], the Kd was 0.58 nM and 0.59 nM and 0.57 nM and 0.6 nM; the koff is 0.000494 s⁻¹ and 0.000489 s⁻¹ and 0.000499 s⁻¹; the kon is 854000 M⁻¹ s⁻¹ and 833000 M⁻¹ s⁻¹ and 863000 M⁻¹ s⁻¹ and 826000 M⁻¹ s⁻¹.

The values are drawn from patent US20220119534A1 (DRAGONFLY THERAPEUTICS, published 2022).
